Article PMC11213948 (2024)

Target: G5_(1–1508)-FLAG
Experiment: pull-down
Settings: HEK293 cell lysates; western blot with anti-FLAG and anti-Xpress; n = 2; read off a plot

response (relative intensity (PD/In)): 1.3
Substance: Xpress-His G5_(1–1508) mutant A951E [not stated] / G5_(1–1508)-FLAG [not stated] chain 1 A951E
